The values that follow come from patent publication US9364412B2, “Electrostatically controlled hydrogels” (University of Utah Research Foundation, priority 2005, dated 2016).

Data set [1] is described as follows: Solubility of peptide in buffer (observation). Format: physicochemical.
A short description of data set [2]: Salt-induced gelation (NaCl added to peptide solution). Particulars: for final NaCl concentration for salt-induced gelation: peptides dialyzed in 30 mM buffer, pH 6.0. Format: physicochemical. How it is done:
For pH-induced gelation, dialyzed peptide solutions in vials were exposed to vapors of acetic acid (acid-induced gelation) or ammonium hydroxide (base-induced gelation). […] For salt-induced gelation, saturated sodium chloride solution was added into the dialyzed stock peptide solution so that the final peptide concentration in the hydrogel was 1 wt %. For mixing-induced gelation, dialyzed peptide solutions were mixed at 1:1 weight ratio such that the final total peptide concentration was 1 wt %.
The salt concentration necessary to induce gelation was quite high as indicated by FIG. 2. All peptides were dialyzed in 30 mM buffer and needed a much higher concentration to trigger hydrogelation.

Data set [3] concerns the target T1, SEQ ID NO 9, Acetyl-EWEAEAEAEA-amide (negatively charged module).
T1 construct: also called EAW10
T1 peptide: Ac-EWEAEAEAEA-NH2
Briefly: small-angle X-ray scattering of the mixed peptide pair. As for the experimental part:
(§1) A small-angle x-ray scattering instrument was used for measurements at 25° C. This instrument has a slit geometry and all analyses were corrected for this. The angular dependence of the scattering of x-rays from particles in a solvent has the form:
(§2) Transmission electron microscopic (TEM) images of all hydrogels show the formation of fibrous network (FIG. 20). However, the drying step involved in the sample preparation for TEM might cause peptide fibers to aggregate further, giving rise to very heterogeneous samples that were difficult to characterize accurately in terms of fiber thickness, estimated very approximately as ~30 nm (diameter). Therefore, small angle X-ray scattering (SAXS) was used to probe the hydrated fibrous network with minimal perturbations to the samples. The measured scattering intensity (I(Q)) increased over time for each of the biomaterials, indicative of the formation of aggregates and consistent with a growing fibril networks (FIG. 18). […] The trend of the gelation kinetics is evident in FIG. 18, and also in the summary of the structural parameters that can be determined using P(r) analysis (Table 4). The kinetics of the formation of these structures is distinctive among the peptide pairs, with the SEQ ID NO 10:SEQ ID NO 11 pair reaching equilibrium most rapidly (between 15 min and 1 h) and the SEQ ID NO 9:SEQ ID NO 8 pair taking more than 11 hours before its small-angle scattering pattern becomes evident. The overall gelation kinetics monitored by SAXS follows a clear order of SEQ ID NO 10:SEQ ID NO 11>SEQ ID NO 9:SEQ ID NO 11>SEQ ID NO 10:SEQ ID NO 8>SEQ ID NO 9:SEQ ID NO 8. The order of gelation kinetics can be directly correlated to the total electrostatic and hydrophobic interactions among the oligopeptide pairs, which is highest for the SEQ ID NO 10:SEQ ID NO 11 pair and least for the SEQ ID NO 9:SEQ ID NO 8 pair. Among the two unequal chain length pairs, kinetics of SEQ ID NO 9:SEQ ID NO 11 (13 charged and 12 apolar amino acids) was faster than SEQ ID NO 10:SEQ ID NO 8 (12 charged and 13 apolar amino acids).

In data set [4] the target is T2, SEQ ID NO 10, Acetyl-WEAEAEAEAEAEAEA-amide (negatively charged module).
T2 construct: Synthetic designed 15-mer
T2 peptide: Ac-WEAEAEAEAEAEAEA-NH2
Described as above. How it is done: as §1, §2

Data set [5] deals with T3, SEQ ID NO 1, Acetyl-EWEVEVEVEV-amide (negatively charged module).
T3 construct: Synthetic designed decapeptide; also called Acetyl-EW(EV)4-amide; negatively-charged peptide module
T3 peptide: Ac-EWEVEVEVEV-NH2
Briefly: mixing-induced co-assembly into hydrogel, dynamic rheometry.

The next data set deals with T4, SEQ ID NO 5.
T4 construct: All peptides were made on Rink Amide resin; also called member of the serine pair
T4 peptide: EWESESESES-NH2
The description is as above.

Where no end group is shown, it is not given here.

As for “Ac-WKVKVKVKVK-NH2 [SEQ ID NO 3, Acetyl-WKVKVKVKVK-amide]”, the “solubility at pH 7” value in data set [1] is “did not appear to be high enough”.
Consider “Acetyl-EWEVEVEVEV-amide (Ac-EWEVEVEVEV-NH2) [SEQ ID NO 1, negatively charged peptide module]”, for which the “state of sample at 1.5 M NaCl” value in data set [2] (1.5 M salt concentration) is recorded as “still a viscous solution”. The “final NaCl concentration for salt-induced gelation” value in data set [2] came to 3 M.
Turning to “Acetyl-KWKVKVKVKVKVKVK-amide (Ac-KWKVKVKVKVKVKVK-NH2) [SEQ ID NO 2, positively charged peptide module]”, in data set [2], the “final NaCl concentration for salt-induced gelation” value was 1.5 M.
As to Ac-KWKAKAKAKAKAKAK-NH2 (Synthetic designed 15-mer) [SEQ ID NO 11, Acetyl-KWKAKAKAKAKAKAK-amide (positively charged module)], the binding result in data set [3] and in data set [4] was “binds” each time.
On to Ac-WKAKAKAKAK-NH2 (also called KAW10) [SEQ ID NO 8, Acetyl-WKAKAKAKAK-amide (positively charged module)], for which the binding result in data set [3] and in data set [4] was “binds” each time.

B1: SEQ ID NO 3, Acetyl-WKVKVKVKVK-amide (positively charged module) (peptide)
peptide: Ac-WKVKVKVKVK-NH2
notes: Synthetic designed decapeptide; also called Acetyl-WK(VK)4-amide; positively-charged peptide module
For the molecule B1, the binding result in data set [5] was “binds”.
Ac-KWKVKVKVKVKVKVK-NH2 (Synthetic designed 15-mer) [SEQ ID NO 2, Acetyl-KWKVKVKVKVKVKVK-amide (positively charged module)]: the binding result in data set [5] was “binds”.

B2: SEQ ID NO 4 (peptide)
peptide: WKSKSKSKSK-NH2
notes: All peptides were made on Rink Amide resin; also called member of the serine pair
Turning to B2, in the data set with SEQ ID NO 5, the binding result is reported as “binds”.
